Reference: patent publication US20080260727A1

How the values were obtained:
[1] = target: 8.3 TcR; test: tetramer staining, flow cytometry on CD8+ T cells of 8.3 TcR-transgenic NOD mice
[2] = target: human NKG2D (human) (UniProt P26718); test: flow cytometry on NKL cells, biotin mAb on ice 30 min, then 16 h at 37° C., APC-streptavidin (antibody left on the surface after culture)
[3] = target: human NKG2D (human) (UniProt P26718); test: flow cytometry on NKL cells, biotin mAb on ice 30 min, APC-streptavidin, before culture (0 h)
[4] = target: human NKG2D (human) (UniProt P26718); test: cell-based or functional assay

Sequence of UniProt P26718 (P26718 whole entry T72A): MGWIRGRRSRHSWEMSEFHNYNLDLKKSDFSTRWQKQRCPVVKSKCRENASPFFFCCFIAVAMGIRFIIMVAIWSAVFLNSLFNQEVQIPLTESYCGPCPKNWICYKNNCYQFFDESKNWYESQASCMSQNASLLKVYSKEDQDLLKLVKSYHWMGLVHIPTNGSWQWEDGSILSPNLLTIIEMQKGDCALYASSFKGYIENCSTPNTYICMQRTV

Substance: NRP-V7/H-2K^d tetramer (from UniProt P01902 22-305) (peptide-MHC)
- percent of CD8+ T cells tetramer positive [1]: > 90%

Substance: mouse anti-human NKG2D mAb (R&D Systems clone 149810) (antibody)
- mean fluorescence intensity (arbitrary units) (arbitrary units) [2]: 61
- mean fluorescence intensity (arbitrary units) (arbitrary units) [3]: 186
- decrease in expression of NKG2D on the cell surface [4]: 67%
